The chains are these.
B2: recombinant human IL-23 cytokine (p19 + p40) (ligand)
chain 1: RAVPGGSSPAWTQCQQLSQKLCTLAWSAHPLVGHMDLREEGDEETTNDVPHIQCGDGCDPQGLRDNSQFCLQRIHQGLIFYEKLLGSDIFTGEPSLLPDSPVGQLHASLLGLSQLLQPEGHHWETQQIPSLSPSQPWQRLLLRFKILRSLQAFVAVAARVFAHGAATLSP
chain 2: IWELKKDVYVVELDWYPDAPGEMVVLTCDTPEEDGITWTLDQSSEVLGSGKTLTIQVKEFGDAGQYTCHKGGEVLSHSLLLLHKKEDGIWSTDILKDQKEPKNKTFLRCEAKNYSGRFTCWWLTTISTDLTFSVKSSRGSSDPQGVTCGAATLSAERVRGDNKEYEYSVECQEDSACPAAEESLPIEVMVDAVHKLKYENYTSSFFIRDIIKPDPPKNLQLKPLKNSRQVEVSWEYPDTWSTPHSYFSLTFCVQVQGKSKREKKDRVFTDKTSATVICRKNASISVRAQDRYYSSSWSEWASVPCS
notes: Disulfide-linked heterodimer

The target in experiment [1] is T1, recombinant human His-tagged soluble IL-12Rβ1 (human, UniProt P42701 24-545, limits assumed).
T1 construct: Bought (R&D Systems); also called sIL-12Rβ1; shIL-12Rβ1; not shown: His tag
The experiment in a line: anti-Flag immunoprecipitation without IL-23, anti-His immunoblot. An excerpt: On the cell surface, human IL-23Rα combines with human IL-12Rβ1 to form the heterodimeric IL-23 receptor. Human IL12Rβ1 also partners with human IL12Rβ2 to form the cell-surface IL-12 receptor. We wanted to know whether Δ9 could link to human IL-12Rβ1 via IL-23, or indeed bind it directly.
(§1) Culture medium from Δ9 transfection experiments was concentrated using Amicon ultra centrifugal filter 30K (Millipore), then Δ9 protein was affinity purified using anti-FLAG M2 affinity gel (Sigma). The immuno-complex was precipitated, washed and resuspended in PBS. 200 ng of either IL-12 or IL-23 was added to the suspension and incubated at 4° C. for 2 hours. Reprecipitated FLAG-tagged Δ9 immuno-complex was again precipitated and eluted with excess FLAG peptide. The eluted product was analysed by immunoblot using anti-human p40 or anti-human IL-23R to detect the common p40 subunit of IL-12/IL-23 or Δ9, respectively. […] After extensive washing, the eluted product was analysed using anti-HIS (Invitrogen, Carlsbad Calif.), anti-human p40 or anti-human IL-23R(R&D Systems) to detect soluble IL-12Rβ1, the p40 subunit of IL-23 or Δ9, respectively. […] Immuno-precipitation was performed and analysed by immunoblot, probing with anti-hIL-12/23p40.
(In general: In western blotting, separated proteins are transferred to a membrane and probed.)

Experiment [2] concerns the target B2. Briefly: anti-Flag immunoprecipitation, anti-p40 immunoblot. How it is done: 200 ng of human IL-23 cytokine was added to the immunoprecipitation reaction. The presence of IL-23 in the precipitate was examined by immunoblot using anti-hIL-12/23 p40 antibody.
In addition, we also prepared two (2) more IL-23Rα deletion mutants; namely, 1-250 mutant and 1-200 mutant. These deletion mutants were generated by PCR (See, FIG. 18). Together, all of the four (4) IL-23Rα protein variants (FIG. 18) were tagged with Flag sequence at the C-terminus. […] The culture media were collected 48 hours post-transfection. These four (4) deletion proteins were immunoprecipitated using anti-Flag affinity gel. 200 ng of IL-23 cytokine was added to the immunoprecipitation assay. […] We speculate that the 1-200 mutant may be improperly folded or missing a critical domain that is essential for binding to IL-23 cytokine. […]
Culture medium from Δ9 transfection experiments was concentrated using Amicon ultra centrifugal filter 30K (Millipore), then Δ9 protein was affinity purified using anti-FLAG M2 affinity gel (Sigma). […] The eluted product was analysed by immunoblot using anti-human p40 or anti-human IL-23R to detect the common p40 subunit of IL-12/IL-23 or Δ9, respectively. […] After extensive washing, the eluted product was analysed using anti-HIS (Invitrogen, Carlsbad Calif.), anti-human p40 or anti-human IL-23R(R&D Systems) to detect soluble IL-12Rβ1, the p40 subunit of IL-23 or Δ9, respectively.

In experiment [3] the target is T2, recombinant IL-12 (p35 + p40) (UniProt P29459 23-219; P29460 23-328).
T2 sequence (looked up) 1: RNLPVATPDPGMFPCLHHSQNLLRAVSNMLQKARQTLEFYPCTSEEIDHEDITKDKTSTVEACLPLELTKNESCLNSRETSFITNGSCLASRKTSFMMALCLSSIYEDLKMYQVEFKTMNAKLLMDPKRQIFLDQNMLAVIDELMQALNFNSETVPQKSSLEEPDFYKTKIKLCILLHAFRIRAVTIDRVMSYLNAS
T2 sequence (looked up) 2: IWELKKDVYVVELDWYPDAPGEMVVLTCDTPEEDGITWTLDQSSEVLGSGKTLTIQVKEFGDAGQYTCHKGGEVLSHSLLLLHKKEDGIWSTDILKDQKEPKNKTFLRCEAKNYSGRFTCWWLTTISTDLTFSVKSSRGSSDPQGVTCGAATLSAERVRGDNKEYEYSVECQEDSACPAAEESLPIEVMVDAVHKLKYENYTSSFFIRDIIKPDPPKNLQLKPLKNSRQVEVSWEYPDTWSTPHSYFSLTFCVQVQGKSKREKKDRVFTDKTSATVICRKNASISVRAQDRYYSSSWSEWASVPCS
Briefly: anti-Flag immunoprecipitation, anti-hIL-12/23 p40 immunoblot. As to the method:
FIG. 17 depicts the binding specificity of the recombinant Δ9 protein. Immunoprecipitation experiments were performed using anti-Flag M2 affinity gel. Immunoblot experiment was performed to detect IL-12 and IL-23 in the precipitates using the anti-hIL-12/23 p40 (i.e., anti-human IL-12/23 p40). The recombinant Δ9 protein in the precipitates was detected by anti-human IL-23R. Only IL-23 but not IL-12 was detected in the reaction containing the recombinant Δ9 protein.
as §1, with “Reprecipitated FLAG-tagged Δ9 immuno-complex was again precipitated and eluted with excess FLAG peptide.” left out

Experiment [4] addresses T1, recombinant human His-tagged soluble …. The experiment in a line: anti-Flag immunoprecipitation of Δ9 with IL-23 (200 ng) and sIL-12Rβ1 (1 µg); IL-23 bound to Δ9. As to the method: Human IL12Rβ1 also partners with human IL12Rβ2 to form the cell-surface IL-12 receptor. We wanted to know whether Δ9 could link to human IL-12Rβ1 via IL-23, or indeed bind it directly.
Culture medium from Δ9 transfection experiments was concentrated using Amicon ultra centrifugal filter 30K (Millipore), then Δ9 protein was affinity purified using anti-FLAG M2 affinity gel (Sigma). The immuno-complex was precipitated, washed and resuspended in PBS. 200 ng of either IL-12 or IL-23 was added to the suspension and incubated at 4° C. for 2 hours. Reprecipitated FLAG-tagged Δ9 immuno-complex was again precipitated and eluted with excess FLAG peptide. The eluted product was analysed by immunoblot using anti-human p40 or anti-human IL-23R to detect the common p40 subunit of IL-12/IL-23 or Δ9, respectively. […] After extensive washing, the eluted product was analysed using anti-HIS (Invitrogen, Carlsbad Calif.), anti-human p40 or anti-human IL-23R(R&D Systems) to detect soluble IL-12Rβ1, the p40 subunit of IL-23 or Δ9, respectively. To examine the N-glycosylation modification on soluble human IL-23Rα, purified Δ9 was treated with N-Glycosidase F (PNGase F) at 37° C. for 1 hour followed by immunoblotting using anti-human IL-23R. […] Immuno-precipitation was performed and analysed by immunoblot, probing with anti-hIL-12/23p40.

Experiment [5] deals with B2. The experiment in a line: immunoprecipitation and competitive ELISA. How it is done:
We developed a competitive ELISA to further examine the ability of the deletion protein mutants (i.e., Δ9, Δ8,9 and 1-250 mutant) to compete (i.e., interfere) the binding of IL-23 cytokine to the full-length extracellular domain of IL-23Rα (See, “Materials & Methods”). Recombinant IL-23Rα-Fc fusion protein from R&D (2 μg/ml) was coated on the ELISA plate. IL-23 cytokine (50 ng) was added in the absence or presence of the deletion protein mutants as competitors.
Recombinant human IL-23R-Fc (2 μg/ml) (from R&D) was coated onto plates as a capture reagent. Biotinylated anti-p40 antibody (1:250) (which specifically recognizes the p40 subunit of IL-23) was used as a detection antibody. Streptavidin—horseradish peroxidase (HRP) (1:500) was added to detect the biotinlyated anti-p40 antibody. The peroxidase activity (representing the level of IL-23 captured onto plates) was measured by addition of a tetramethylbenzidine (TMB) substrate (100 μl/well). The color intensity was directly proportion to the amount of the bound IL-23 protein. The color was measured at optical density (OD) 450 nm using a microtiter plate reader.

B1: recombinant Δ9 protein (soluble truncated human IL-23Rα, exon 9 deletion splice variant), C-terminal Flag tag (receptor)
chain: GITNINCSGHIWVEPATIFKMGMNISIYCQAAIKNCQPRKLHFYKNGIKERFQITRINKTTARLWYKNFLEPHASMYCTAECPKHFQETLICGKDISSGYPPDIPDEVTCVIYEYSGNMTCTWNAGKLTYIDTKYVVHVKSLETEEEQQYLTSSYINISTDSLQGGKKYLVWVQAANALGMEESKQLQIHLDDIVIPSAAVISRAETINATVPKTIIYWDSQTTIEKVSCEMRYKATTNQTWNVKEFDTNFTYVQQSEFYLEPNIKYVFQVRCQETGKRYWQPWSSLFFHKTPETVPQVTSKAFQHDTWNSGLTVASISTGHLTSGLKEGSYC
modifications: N-glycosylated (sites not given)
notes: Said to be a monomer; also called Δ9 variant; Δ9 IL-23Rα; not shown: C-terminal Flag tag
In the case of B1, the figures for the binding result in experiment [1], in experiment [2] and in experiment [3] were “no binding (tested: 1 µg)”, “binds” and “no binding (tested: 200 ng)”, respectively.

In the case of B2, the binding result in experiment [4] is given as “binds”.

B3: recombinant Δ8,9 protein (soluble truncated human IL-23Rα, exon 8 and 9 deletion splice variant), C-terminal Flag tag (receptor)
chain: GITNINCSGHIWVEPATIFKMGMNISIYCQAAIKNCQPRKLHFYKNGIKERFQITRINKTTARLWYKNFLEPHASMYCTAECPKHFQETLICGKDISSGYPPDIPDEVTCVIYEYSGNMTCTWNAGKLTYIDTKYVVHVKSLETEEEQQYLTSSYINISTDSLQGGKKYLVWVQAANALGMEESKQLQIHLDDIVIPSAAVISRAETINATVPKTIIYWDSQTTIEKVSCEMRYKATTNQTWNVKEFDTNFTYVQQSEFYLEPNIKYVFQVRCQETGKRYWQPWSSLFFHKTPETGLKEGSYC
notes: not shown: C-terminal Flag tag
Take B3: the binding result in experiment [5] is “binds”.

Values taken from patent US20120071422A1 (MEDICAL DIAGNOSTIC LABORATORIES, published 2012).
